Measurements published in PMC10833071.

Target: TdsR receptor of E. coli (on cells) (E. coli (endogenous in E. coli cells))
Test: flow cytometry on cells

## TepC-GFP (natural protein)
  GFP-labeled cells: 33.1%
